Laboratory results published in PMC11128890 (Frontiers in Cell and Developmental Biology, 2024).
Values belong to the molecule of their own block, whether it stands above or below them.

What was measured:
[1] = biological target: KDR domain 1 (D1) fused to GST; assay: ELISA-type binding assay; settings: GST-KDR-D1 100 μg/mL, read off a plot
[2] = biological target: VEGFR2/KDR (Homo sapiens) (UniProt P35968); settings: cited from earlier work
[3] = biological target: T1, KDR domain 1 (D1) fused to GST; assay: ELISA-type binding assay; settings: chain shown with the change, read off a plot
T1 chain: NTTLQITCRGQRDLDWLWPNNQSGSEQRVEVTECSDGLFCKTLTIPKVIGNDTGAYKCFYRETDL

[4] = biological target: T2, recombinant soluble integrin αvβ3 (UniProt P06756 31-987; P05106 27-718); assay: ELISA; HBD, NTD or HBD mutants coated on 96-well plates, blocked with BSA; soluble αvβ3 (1 μg/mL) in HEPES-Tyrode buffer + 1 mM MnCl2, 1 h room temperature; bound αvβ3 detected with anti-β3 mAb AV10; binding to HBD inhibited by mAb 7E3 and cation-dependent; settings: both partners purified
T2 construct: integrin αv subunit, soluble expression construct; integrin β3 subunit, soluble expression construct; PDB 1L5G is the αvβ3 structure used for docking, not necessarily the same limits; also called soluble αvβ3; source: CHO K1 cells, soluble αv and β3 expression constructs, purified (Ni-NTA)
T2 sequence (P06756 31-987, chain 1 of 2): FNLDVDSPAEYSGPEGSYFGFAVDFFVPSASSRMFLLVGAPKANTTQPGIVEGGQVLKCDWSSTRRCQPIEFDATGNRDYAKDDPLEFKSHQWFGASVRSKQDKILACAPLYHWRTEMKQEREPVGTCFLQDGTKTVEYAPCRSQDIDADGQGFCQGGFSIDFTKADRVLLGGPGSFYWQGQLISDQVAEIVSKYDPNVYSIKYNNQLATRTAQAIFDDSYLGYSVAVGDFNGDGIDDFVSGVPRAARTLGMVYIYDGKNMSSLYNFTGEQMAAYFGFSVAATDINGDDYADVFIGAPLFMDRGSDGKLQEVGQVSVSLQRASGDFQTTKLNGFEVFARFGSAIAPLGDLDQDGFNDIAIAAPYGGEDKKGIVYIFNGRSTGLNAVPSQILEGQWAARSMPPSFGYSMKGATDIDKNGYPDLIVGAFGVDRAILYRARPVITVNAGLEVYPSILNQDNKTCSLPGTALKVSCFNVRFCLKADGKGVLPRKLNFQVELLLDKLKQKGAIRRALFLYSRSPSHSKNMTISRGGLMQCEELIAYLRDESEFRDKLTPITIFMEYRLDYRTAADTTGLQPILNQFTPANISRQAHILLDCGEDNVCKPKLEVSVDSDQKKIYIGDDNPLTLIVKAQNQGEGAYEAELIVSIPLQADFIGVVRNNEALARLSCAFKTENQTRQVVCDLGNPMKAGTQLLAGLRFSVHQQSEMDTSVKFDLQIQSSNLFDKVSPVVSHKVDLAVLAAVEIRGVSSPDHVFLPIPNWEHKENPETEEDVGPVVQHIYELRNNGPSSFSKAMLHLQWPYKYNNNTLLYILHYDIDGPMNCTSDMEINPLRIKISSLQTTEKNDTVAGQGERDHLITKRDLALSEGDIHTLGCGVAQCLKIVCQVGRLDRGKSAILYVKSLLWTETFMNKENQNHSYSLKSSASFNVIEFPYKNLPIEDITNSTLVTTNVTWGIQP
T2 sequence (P05106 27-718, chain 2 of 2): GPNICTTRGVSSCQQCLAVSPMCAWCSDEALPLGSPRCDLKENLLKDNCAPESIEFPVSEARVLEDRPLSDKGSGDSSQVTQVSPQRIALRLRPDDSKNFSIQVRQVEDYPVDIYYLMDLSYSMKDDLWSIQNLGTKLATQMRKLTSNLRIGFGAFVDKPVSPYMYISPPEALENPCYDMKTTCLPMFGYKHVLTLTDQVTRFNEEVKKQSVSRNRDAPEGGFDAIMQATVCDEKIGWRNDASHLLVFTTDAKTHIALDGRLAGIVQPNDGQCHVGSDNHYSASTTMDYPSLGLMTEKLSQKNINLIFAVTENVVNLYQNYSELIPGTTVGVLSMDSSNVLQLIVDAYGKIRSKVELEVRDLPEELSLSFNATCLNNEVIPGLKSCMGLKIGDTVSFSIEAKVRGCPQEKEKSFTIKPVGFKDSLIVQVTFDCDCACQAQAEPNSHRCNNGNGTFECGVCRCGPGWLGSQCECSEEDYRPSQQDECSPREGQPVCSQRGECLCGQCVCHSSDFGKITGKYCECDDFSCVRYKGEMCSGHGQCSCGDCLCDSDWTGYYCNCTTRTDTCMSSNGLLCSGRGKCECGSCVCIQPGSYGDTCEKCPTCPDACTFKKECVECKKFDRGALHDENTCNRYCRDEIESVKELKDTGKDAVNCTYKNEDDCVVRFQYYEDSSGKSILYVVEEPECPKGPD

[5] = biological target: T2, recombinant soluble integrin αvβ3; assay: SPR; soluble αvβ3 (His-tagged) immobilised on CM5 chip by amine coupling; HBD injected at 50 μL/min for 1.8 min; HBS-P buffer (0.01 M HEPES pH 7.4, 0.15 M NaCl, 0.0005% P20) with 1 mM Mn2+; settings: both partners purified
[6] = biological target: T3, KDR domain 1 (D1), His-tagged; assay: SPR; KDR D1 (His-tagged) immobilised on CM5 chip by amine coupling; HBD injected at 50 μL/min for 1.8 min; HBS-EP buffer (0.01 M HEPES pH 7.4, 0.15 M NaCl, 3 mM EDTA, 0.0005% P20); settings: both partners purified
T3 construct: first IgG-like domain (D1) of VEGFR2/KDR, amplified from full-length KDR cDNA; Cloned into the BamHI/EcoRI site of pET28a; also called KDR D1; KDR D1 (His-tagged)
T3 chain: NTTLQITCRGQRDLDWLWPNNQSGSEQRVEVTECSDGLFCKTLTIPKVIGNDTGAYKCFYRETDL

[7] = biological target: T4, KDR domain 1 (D1), His-tagged; assay: SPR
T4 chain: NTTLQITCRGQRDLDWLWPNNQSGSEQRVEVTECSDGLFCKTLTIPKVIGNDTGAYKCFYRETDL

[8] = HBD at 10 µg/ml, parent: est. 0.93
[9] = HBD coated at 20 µg/ml (highest point of the curve), parent: est. 1.4
[10] = GST-KDR-D1 100 μg/mL, parent: est. 0.51

VEGFR2/KDR (Homo sapiens), sequence (P35968 20-1356): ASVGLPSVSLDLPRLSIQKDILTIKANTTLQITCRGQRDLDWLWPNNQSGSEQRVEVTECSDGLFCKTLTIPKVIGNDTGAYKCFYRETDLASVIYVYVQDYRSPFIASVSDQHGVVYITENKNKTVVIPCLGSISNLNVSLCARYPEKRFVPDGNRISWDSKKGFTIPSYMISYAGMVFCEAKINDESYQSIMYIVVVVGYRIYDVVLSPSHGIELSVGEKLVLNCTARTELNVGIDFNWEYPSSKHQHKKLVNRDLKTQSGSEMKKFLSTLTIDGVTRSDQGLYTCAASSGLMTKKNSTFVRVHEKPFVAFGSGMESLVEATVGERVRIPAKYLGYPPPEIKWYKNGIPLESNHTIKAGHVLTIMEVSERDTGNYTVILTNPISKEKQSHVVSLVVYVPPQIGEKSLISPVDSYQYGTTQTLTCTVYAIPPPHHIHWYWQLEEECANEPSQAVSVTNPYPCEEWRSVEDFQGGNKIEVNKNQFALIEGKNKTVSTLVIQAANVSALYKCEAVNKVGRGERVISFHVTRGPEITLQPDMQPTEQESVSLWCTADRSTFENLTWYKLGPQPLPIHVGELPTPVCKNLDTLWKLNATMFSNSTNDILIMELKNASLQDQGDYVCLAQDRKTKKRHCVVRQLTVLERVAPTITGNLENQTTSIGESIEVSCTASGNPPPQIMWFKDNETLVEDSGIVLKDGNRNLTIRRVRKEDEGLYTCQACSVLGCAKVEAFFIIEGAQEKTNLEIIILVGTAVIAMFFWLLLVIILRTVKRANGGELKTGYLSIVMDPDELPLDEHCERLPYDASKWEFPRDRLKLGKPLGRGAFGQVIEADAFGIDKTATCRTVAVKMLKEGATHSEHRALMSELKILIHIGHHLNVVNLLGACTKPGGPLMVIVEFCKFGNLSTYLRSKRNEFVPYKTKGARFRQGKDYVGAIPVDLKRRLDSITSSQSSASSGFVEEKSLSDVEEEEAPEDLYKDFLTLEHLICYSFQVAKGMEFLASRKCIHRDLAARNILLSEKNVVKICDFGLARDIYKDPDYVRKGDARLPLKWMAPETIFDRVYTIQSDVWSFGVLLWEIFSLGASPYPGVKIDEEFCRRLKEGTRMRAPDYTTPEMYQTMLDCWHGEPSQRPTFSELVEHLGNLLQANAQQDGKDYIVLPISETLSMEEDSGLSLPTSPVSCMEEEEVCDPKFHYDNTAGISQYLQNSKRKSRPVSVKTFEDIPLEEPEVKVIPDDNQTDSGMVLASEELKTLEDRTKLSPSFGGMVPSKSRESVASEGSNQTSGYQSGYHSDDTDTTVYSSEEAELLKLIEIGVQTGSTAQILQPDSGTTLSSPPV

- response [1, 8]: 0.74 OD450
- response [1, 9]: 1.1 OD450
Molecule: VEGF165 heparin-binding domain (HBD), wild type K145E

- response [1, 8]: 0.73 OD450
- response [1, 9]: 0.89 OD450
Molecule: VEGF165 heparin-binding domain (HBD), wild type K140E

- response [1, 8]: 1 OD450
Molecule: VEGF165 heparin-binding domain (HBD), wild type K136E

Molecule: VEGF165 (from UniProt P15692)
- Kd [2]: 0.14 nM

- response [3, 10]: 0.31 OD450
Molecule: PCGPCSERREHLFVQDPQTCKCSCKNTDSRCKARQLELNERTCRCDKPRR [VEGF165 heparin-binding domain (HBD), wild type K125E]

- response ([3]; left graph (dose-response), HBD coated at 10 µg/ml, soluble GST-tagged KDR fragment 100 μg/mL, parent: est. 0.77): 0.1 OD450
- response ([3]; left graph (dose-response), HBD coated at 20 µg/ml, soluble GST-tagged KDR fragment 100 μg/mL, parent: est. 1.2): 0.16 OD450
- response ([3]; right graph (bar chart), 20 µg/ml, n=3, soluble GST-tagged KDR fragment 100 μg/mL, parent: est. 1.4): 0.13 OD450
Molecule: PCGPCSEAAAHLFVQDPQTCKCSCANTDSACKAAQLELNERTCRCDKPRR [VEGF165 heparin-binding domain (HBD), wild type R123A; R124A; K125A; K140A; R145A; R149A]

- response [3, 10]: 0.2 OD450
Molecule: PCGPCSEREKHLFVQDPQTCKCSCKNTDSRCKARQLELNERTCRCDKPRR [VEGF165 heparin-binding domain (HBD), wild type R124E]

- binding result [4]: binds
Molecule: PCGPCSERRKHLFVQDPQTCKCSCANTDSACKAAQLELNERTCRCDKPRR (domain or fragment, human, the substitutions are to be applied) [VEGF165 HBD K140A/R145A/R149A mutant]

- binding result [4]: binds
Molecule: PCGPCSEAAAHLFVQDPQTCKCSCKNTDSRCKARQLELNERTCRCDKPRR (domain or fragment, human, the substitutions are to be applied) [VEGF165 HBD R123A/R124A/K125A mutant]

- Kd [5]: 470 nM
- Kd [6]: ~100 nM
- Kd [7]: 109 nM
B1: VEGF165 heparin-binding domain (HBD), wild type (domain or fragment, human)
chain: PCGPCSERRKHLFVQDPQTCKCSCKNTDSRCKARQLELNERTCRCDKPRR
notes: Cloned into the BamHI/EcoRI site of pET28a; PDB 2VGH is the HBD structure used for docking; also called VEGF165-HBD; VEGF165 HBD

- response [3, 10]: 0.06 OD450
- response ([3]; HBD at 10 µg/ml, GST-KDR-D1 100 μg/mL, parent: est. 0.93): 0.14 OD450
- response ([3]; HBD coated at 20 µg/ml (highest point of the curve), GST-KDR-D1 100 μg/mL, parent: est. 1.4): 0.16 OD450
Molecule: PCGPCSEEEEHLFVQDPQTCKCSCKNTDSRCKARQLELNERTCRCDKPRR [VEGF165 heparin-binding domain (HBD), wild type R123E; R124E; K125E]

- response [3, 10]: 0.14 OD450
Molecule: PCGPCSEERKHLFVQDPQTCKCSCKNTDSRCKARQLELNERTCRCDKPRR [VEGF165 heparin-binding domain (HBD), wild type R123E]
